Broadly, the stoichiometry N is a count of units in the complex or per binding partner. A word on the Kd: it is a measure of binding affinity in units of concentration. A low value points to a tighter complex.

Data set [1] has as its target MBP-Spc72^231-268 (C. albicans) (UniProt Q5AGV5). Nature of the data set: SEC; MBP-CM1 constructs at 100 µM. In general terms: SEC sorts molecules by how far they enter the pores of the column.
Data set [2] concerns the molecule itself. Nature of the data set: SEC-MALS + other: mass photometry; FLAG-Stu2 (10 µM) and His-Spc72^291-599 (60 µM) alone or mixed 1:1 (vol), Superdex 200 Increase 5/150, 50 mM Tris-HCl pH 7.5, 150 mM NaCl, room temperature; mass photometry below 40 nM.
The target in data set [3] is T1, FLAG-Stu2 (C. albicans, full length) (C. albicans, UniProt A0A1D8PTZ8 1-924).
T1 construct: Stu2, C. albicans, full-length Met1 to Glu924; FLAG tag followed by an HRV 3C cleavage site at the 5' end; also called wild-type FLAG-Stu2; source: Sf21 insect cells; not shown: FLAG, N-terminal, kept
T1 sequence (looked up): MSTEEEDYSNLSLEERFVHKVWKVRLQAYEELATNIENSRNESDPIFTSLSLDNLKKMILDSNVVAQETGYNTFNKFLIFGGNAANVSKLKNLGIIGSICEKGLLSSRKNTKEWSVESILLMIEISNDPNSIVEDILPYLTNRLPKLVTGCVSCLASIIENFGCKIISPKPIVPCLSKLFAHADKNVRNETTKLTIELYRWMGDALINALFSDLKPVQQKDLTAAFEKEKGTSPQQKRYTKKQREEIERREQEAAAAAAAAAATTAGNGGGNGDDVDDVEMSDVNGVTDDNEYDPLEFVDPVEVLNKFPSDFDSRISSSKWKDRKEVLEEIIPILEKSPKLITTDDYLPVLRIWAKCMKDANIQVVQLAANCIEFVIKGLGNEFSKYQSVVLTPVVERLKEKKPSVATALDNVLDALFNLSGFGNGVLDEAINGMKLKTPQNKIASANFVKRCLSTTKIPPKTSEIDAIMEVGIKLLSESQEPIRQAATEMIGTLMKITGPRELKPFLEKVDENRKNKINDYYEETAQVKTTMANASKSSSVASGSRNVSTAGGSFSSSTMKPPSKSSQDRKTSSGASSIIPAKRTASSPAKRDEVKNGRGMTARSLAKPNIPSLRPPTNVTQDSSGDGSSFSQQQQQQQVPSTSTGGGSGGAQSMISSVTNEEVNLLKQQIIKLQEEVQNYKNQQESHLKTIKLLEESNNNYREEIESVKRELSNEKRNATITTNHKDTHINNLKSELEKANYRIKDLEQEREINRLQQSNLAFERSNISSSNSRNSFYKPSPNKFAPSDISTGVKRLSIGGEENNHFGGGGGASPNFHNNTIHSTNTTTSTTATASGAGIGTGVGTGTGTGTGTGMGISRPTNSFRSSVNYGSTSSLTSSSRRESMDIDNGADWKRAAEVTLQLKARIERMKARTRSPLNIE
Nature of the data set: pull-down; FLAG-Stu2 variants from insect cell lysate on anti-FLAG M2 gel, washed, then 20 µg purified Spc72 fragments from E. coli added for 1 h; 200 mM NaCl; eluted with 3xFLAG peptide, Western blot; also called IP or co-IP. The conditions noted are these: both partners purified. (In general: A western blot detects proteins with antibodies after separation by electrophoresis.)

Data set [4] concerns the molecule itself. Put plainly: cryo-EM structure; γ-TuSC/Spc72^1-599/FLAG-Stu2 complex purified via FLAG-Stu2; single particle analysis, γ-TuSC unit within oligomers at 3.6 Å, 14-spoked ring at 8.2 Å.
The target in data set [5] is γ-tubulin small complex (γ-TuSC) from C. albicans: His-Spc97, His-Spc98, γ-tubulin (Tub4) (C. albicans, UniProt Q59PZ2 1-871; A0A1D8PS42 1-785; O93807 1-502). Nature of the data set: MST.
For data set [6], the target named is GST-CM1^231-268 (GST-Spc72^231-268) (C. albicans) (UniProt Q5AGV5). Nature of the data set: mass photometry; MBP-CM1 and GST-CM1 constructs diluted to below 40 nM in SEC buffer; for the GST constructs: GST-mediated dimers to tetramers.
The target in data set [7] is T2, FLAG-Stu2^∆666-768 (coiled-coil deletion mutant) (C. albicans, UniProt A0A1D8PTZ8 1-924, ∆666-768).
T2 construct: Stu2, C. albicans (Met1 to Glu924), coiled-coil region 666-768 deleted
T2 sequence: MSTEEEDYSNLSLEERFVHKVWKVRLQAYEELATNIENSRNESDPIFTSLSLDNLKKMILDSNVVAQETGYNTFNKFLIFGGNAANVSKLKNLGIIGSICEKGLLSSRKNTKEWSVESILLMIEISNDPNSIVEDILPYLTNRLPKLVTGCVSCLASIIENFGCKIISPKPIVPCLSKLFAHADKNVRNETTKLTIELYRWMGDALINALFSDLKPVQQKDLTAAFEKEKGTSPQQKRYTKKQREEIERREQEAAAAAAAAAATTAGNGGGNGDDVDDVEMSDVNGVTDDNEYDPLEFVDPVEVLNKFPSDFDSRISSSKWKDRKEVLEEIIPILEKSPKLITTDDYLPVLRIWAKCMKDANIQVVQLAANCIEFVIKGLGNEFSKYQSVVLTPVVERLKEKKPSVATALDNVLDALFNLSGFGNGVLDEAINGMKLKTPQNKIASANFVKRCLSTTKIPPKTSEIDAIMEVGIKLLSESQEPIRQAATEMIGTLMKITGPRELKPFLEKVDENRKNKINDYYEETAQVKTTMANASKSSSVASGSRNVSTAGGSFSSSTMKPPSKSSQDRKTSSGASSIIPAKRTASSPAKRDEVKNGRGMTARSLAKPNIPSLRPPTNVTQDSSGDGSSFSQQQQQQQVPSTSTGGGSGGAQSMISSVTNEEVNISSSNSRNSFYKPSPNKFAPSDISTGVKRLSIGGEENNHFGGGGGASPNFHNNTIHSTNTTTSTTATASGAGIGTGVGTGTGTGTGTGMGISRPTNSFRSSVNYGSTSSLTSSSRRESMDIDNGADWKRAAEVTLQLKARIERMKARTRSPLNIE
Put plainly: pull-down; FLAG-Stu2 variants from insect cell lysate on anti-FLAG M2 gel, washed, then 20 µg purified Spc72 fragments from E. coli added for 1 h; 200 mM NaCl; eluted with 3xFLAG peptide, Western blot; also called IP or co-IP. The conditions noted are these: both partners purified.

In data set [8] the target is T3, FLAG-tagged γ-TuSC (FLAG-Spc98, His-Spc97, γ-tubulin) (C. albicans, UniProt A0A1D8PS42 1-785; Q59PZ2 1-871; O93807 1-502).
T3 construct: Spc98, C. albicans; Spc97, C. albicans; γ-tubulin (Tub4), C. albicans; also called FLAG-γ-TuSC; copies: + +
Nature of the data set: pull-down; FLAG-γ-TuSC (FLAG-Spc98) from insect cell lysate on anti-FLAG M2 gel, washed, then 20 µg purified His-Spc72 added for 1 h; 150 mM NaCl; eluted with 3xFLAG peptide, Western blot; called co-IP in the text. The conditions noted are these: both partners purified.

On to “MBP-Spc72^231-268 (from UniProt Q5AGV5 231-268) (domain or fragment)”, for which, in data set [1], the stoichiometry N turned out to be 2.

B1: His-Spc72^291-599 (domain or fragment, C. albicans, UniProt Q5AGV5 291-599, looked up)
chain: NNPLSTSLSQTSTLEIQHQNLQIELDEALELNKQLYNKIETANKEISDKDLQISNYESRINLINYSVDELIYILINEYDKNNYSHGGSNTTSPGKETLQQSISAQLEVKLNVLKLELMTRLDQSHQYNNKPHDLFTPPYTSSEYGVSTNNVANKNDLEGYIHIIEDLIKTVDELELTCENYKANKNELQNQLVEQINESIRIKNNFQIMSNKFNQLRQSLSEKENDKNLDEFSKNNHQQQQQQQIQQLEQKLIEYEKCITILQDELDQYKQPSDTTNTTNNNNNNNNNNNRSSYSSYNNHRNSSLNELN
notes: source: E. coli, purified (Ni-TED for pull-downs; Ni-NTA and SEC for HX-MS, SEC-MALS and mass photometry); not shown: His6, N-terminal, kept
Consider B1, for which the “stoichiometry N” value in data set [2] worked out at 2.

B2: His-GFP-Spc72^430-480 (domain or fragment, C. albicans, UniProt Q5AGV5 430-480, looked up)
chain: TSSEYGVSTNNVANKNDLEGYIHIIEDLIKTVDELELTCENYKANKNELQN
notes: Spc72, C. albicans, codons 430-480; source: E. coli BL21 CodonPlus-RIL; not shown: GFP, N-terminal, kept
B2: the binding result in data set [3] is “binds”.

B3: His-GFP-Spc72^300-350 (domain or fragment, C. albicans, UniProt Q5AGV5 300-350, looked up)
chain: QTSTLEIQHQNLQIELDEALELNKQLYNKIETANKEISDKDLQISNYESRI
notes: Spc72, C. albicans, codons 300-350; source: E. coli BL21 CodonPlus-RIL; not shown: GFP, N-terminal, kept
With B3, the binding result in data set [3] was “binds”.

B4: γ-tubulin (Tub4), C. albicans (natural protein, UniProt O93807 1-502, looked up)
chain: MPGETITLQVGQCGNQVGLQYWQQLATEHGIQSDGSSTPYPKDINDLQLQELNNSGSSPQSYPQQTKPNGKYRNDHPELFFTLSDSNTYTPRSILIDMEPSVIAKSTSALPMFNPRNVHLSNQGNGAANNWINGYKYGTEEEETLLNLIDREVDKCDNLSNFQLFHSVAGGTGSGVGSKMLEVISDRYGHKKLLNTFSIFPSNEDTSDVVVQPYNTILTLKRLIDYSDATFVFHNDSLNRIENILFNNNSNIQHDDNDLFLGANKLIALVSASVSNPLRFPGYMYSSMESIVSNLIPTPDLKFLTSSIAPFSTQKHNYLNEYDMLLELSNDRYKTNRVGGDTSYISMLNYLIGYNLDQREIRKGILKSQQRISFVPWVARSVLVVHGKKSPYLKNTNLEGIQVTNNTSMIDVFTKILKQFDLLIKRKAYLNRYYSSVEEENEVMEMFNESRESVKSIIDEYKACKEITYLDDDDEDDLEDGDGGGGGNGNGYNNIDDADMGI
notes: γ-tubulin (Tub4), C. albicans; Subunit of m1, written alone for the contacts in the cryo-EM structure
In the case of B4, the binding result in data set [4] is given as “binds”.

B5: His-GFP-Spc72^429-599 (domain or fragment, C. albicans, UniProt Q5AGV5 429-599, looked up)
chain: YTSSEYGVSTNNVANKNDLEGYIHIIEDLIKTVDELELTCENYKANKNELQNQLVEQINESIRIKNNFQIMSNKFNQLRQSLSEKENDKNLDEFSKNNHQQQQQQQIQQLEQKLIEYEKCITILQDELDQYKQPSDTTNTTNNNNNNNNNNNRSSYSSYNNHRNSSLNELN
notes: also called second coiled-coil module; source: E. coli BL21 CodonPlus-RIL, purified (Ni-TED); not shown: GFP, N-terminal, kept
Regarding B5, the binding result in data set [3] is on record as “binds”. Regarding NIATTTKSREEELNKRIVNYKIQLKLMKNFLQELIDRN (domain or fragment) [GST-CM1^231-268 (GST-Spc72^231-268)], in data set [5], binding was put at a Kd of 0.105 µM. The stoichiometry N in data set [6] was determined as 4.

B6: His-Spc72^1-599 (C. albicans), from E. coli (domain or fragment, UniProt Q5AGV5 1-599, looked up)
chain: MSNLSINESNDNSNVSILSNKSGAQSSTNSSPNLIVFKQPEDLSIQLQQQQQGTQEDTPEEEEEEEEEMEQITQLEVQQENQPDTLSSSPFISRPNSPLDDIIRPQGTSSPSLTIRDSYSSQVDINISNLHKSLNEMRLSTDPVDNNNNNNKVNKNNPTNSDISNDDIITIDNLTPSRIQPKNISPWRQFRPTLRGSPESTPRSLFQNKPNLKFNNGLSPTNGSRDMVTNNIATTTKSREEELNKRIVNYKIQLKLMKNFLQELIDRNNLDPHEFHTLLRRNNNNIMNNENNPLSTSLSQTSTLEIQHQNLQIELDEALELNKQLYNKIETANKEISDKDLQISNYESRINLINYSVDELIYILINEYDKNNYSHGGSNTTSPGKETLQQSISAQLEVKLNVLKLELMTRLDQSHQYNNKPHDLFTPPYTSSEYGVSTNNVANKNDLEGYIHIIEDLIKTVDELELTCENYKANKNELQNQLVEQINESIRIKNNFQIMSNKFNQLRQSLSEKENDKNLDEFSKNNHQQQQQQQIQQLEQKLIEYEKCITILQDELDQYKQPSDTTNTTNNNNNNNNNNNRSSYSSYNNHRNSSLNELN
notes: source: E. coli BL21 CodonPlus-RIL, purified (Ni-TED); not shown: His6, N-terminal, kept
Turning to B6, the binding result in data set [3] and in data set [7] was “binds” in each case.

B7: His-Spc72^1-599,3R (L243R/I247R/L254R), from E. coli (domain or fragment)
chain: MSNLSINESNDNSNVSILSNKSGAQSSTNSSPNLIVFKQPEDLSIQLQQQQQGTQEDTPEEEEEEEEEMEQITQLEVQQENQPDTLSSSPFISRPNSPLDDIIRPQGTSSPSLTIRDSYSSQVDINISNLHKSLNEMRLSTDPVDNNNNNNKVNKNNPTNSDISNDDIITIDNLTPSRIQPKNISPWRQFRPTLRGSPESTPRSLFQNKPNLKFNNGLSPTNGSRDMVTNNIATTTKSREEERNKRRVNYKIQRKLMKNFLQELIDRNNLDPHEFHTLLRRNNNNIMNNENNPLSTSLSQTSTLEIQHQNLQIELDEALELNKQLYNKIETANKEISDKDLQISNYESRINLINYSVDELIYILINEYDKNNYSHGGSNTTSPGKETLQQSISAQLEVKLNVLKLELMTRLDQSHQYNNKPHDLFTPPYTSSEYGVSTNNVANKNDLEGYIHIIEDLIKTVDELELTCENYKANKNELQNQLVEQINESIRIKNNFQIMSNKFNQLRQSLSEKENDKNLDEFSKNNHQQQQQQQIQQLEQKLIEYEKCITILQDELDQYKQPSDTTNTTNNNNNNNNNNNRSSYSSYNNHRNSSLNELN
notes: The cloning of the E. coli construct of this mutant is not described; also called Spc72^3R mutant; source: E. coli BL21 CodonPlus-RIL, purified (Ni-TED)
With B7, in data set [8], the “fold lower binding efficiency compared to Spc72^1-599” value was determined as 1.7 fold.

The values above are taken from article PMC11701102, “Structural insights into the interplay between microtubule polymerases, γ-tubulin complexes and their receptors” (Nature Communications, 2025).
